Measurements published in US20050026839A1 (GENERAL HOSPITAL, published 2005).
Square brackets hold non-standard residues; d marks the D form. Ends that are not written are not given here. hArg = N=C(N)NCCCC[C@H](N)C(=O)O; Nle = CCCC[C@H](N)C(=O)O; Aib = CC(C)(N)C(=O)O

T1: truncated human P1R deleted for residues (24-181) (hP1R-delNt) (human, UniProt Q03431 182-593)
T1 construct: whole, on cells; also called delNT receptor
T1 sequence (looked up): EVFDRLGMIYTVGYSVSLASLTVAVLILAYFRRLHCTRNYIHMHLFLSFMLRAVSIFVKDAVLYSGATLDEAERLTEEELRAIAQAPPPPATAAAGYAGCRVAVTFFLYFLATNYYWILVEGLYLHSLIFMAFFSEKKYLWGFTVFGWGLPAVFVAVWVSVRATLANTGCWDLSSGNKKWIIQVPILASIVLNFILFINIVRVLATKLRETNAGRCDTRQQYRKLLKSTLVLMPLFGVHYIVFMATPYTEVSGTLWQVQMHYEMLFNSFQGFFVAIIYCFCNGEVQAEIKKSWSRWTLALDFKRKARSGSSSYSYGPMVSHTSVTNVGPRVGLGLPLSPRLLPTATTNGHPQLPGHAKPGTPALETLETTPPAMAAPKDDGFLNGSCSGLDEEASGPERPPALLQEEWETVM

B1: [Aib^1,3,M]PTH(1-14) (peptide)
peptide: [Aib]V[Aib]EIQLMHQ[hArg]AKW-NH2
modifications: N-terminus assumed
SMILES: CC[C@H](C)[C@H](NC(=O)[C@H](CCC(=O)O)NC(=O)C(C)(C)NC(=O)[C@@H](NC(=O)C(C)(C)N)C(C)C)C(=O)N[C@@H](CCC(N)=O)C(=O)N[C@@H](CC(C)C)C(=O)N[C@@H](CCSC)C(=O)N[C@@H](Cc1c[nH]cn1)C(=O)N[C@@H](CCC(N)=O)C(=O)N[C@@H](CCCCNC(=N)N)C(=O)N[C@@H](C)C(=O)N[C@@H](CCCCN)C(=O)N[C@@H](Cc1c[nH]c2ccccc12)C(N)=O
notes: also called 671 [Aib^1,3, M]PTH (1-14); 671 [Aib^1,3M]PTH(1-14)
B2: [Aib^1,3,M]PTH(1-21) (peptide)
peptide: [Aib]V[Aib]EIQL[Nle]HQ[hArg]AKWLASVRRY-NH2
modifications: N-terminus assumed
SMILES: CCCC[C@H](NC(=O)[C@H](CC(C)C)NC(=O)[C@H](CCC(N)=O)NC(=O)[C@@H](NC(=O)[C@H](CCC(=O)O)NC(=O)C(C)(C)NC(=O)[C@@H](NC(=O)C(C)(C)N)C(C)C)[C@@H](C)CC)C(=O)N[C@@H](Cc1c[nH]cn1)C(=O)N[C@@H](CCC(N)=O)C(=O)N[C@@H](CCCCNC(=N)N)C(=O)N[C@@H](C)C(=O)N[C@@H](CCCCN)C(=O)N[C@@H](Cc1c[nH]c2ccccc12)C(=O)N[C@@H](CC(C)C)C(=O)N[C@@H](C)C(=O)N[C@@H](CO)C(=O)N[C@H](C(=O)N[C@@H](CCCNC(=N)N)C(=O)N[C@@H](CCCNC(=N)N)C(=O)N[C@@H](Cc1ccc(O)cc1)C(N)=O)C(C)C
notes: unlabeled peptide; also called 674 [Aib^1,3, M]PTH (1-21); 674 [Aib^1,3M]PTH(1-21)

How the values were obtained:
[1] = target: T1, truncated human P1R deleted for …; experiment: competition binding, 125I-[Aib1,3,M]PTH(1-21) tracer, COS-7 cells expressing hP1R-delNt
Protocol: Stock solutions of EGTA/trypsin and antibiotics were from GIBCO; fetal bovine serum was from Hyclone Laboratories (Logan, Utah). […] All cells, in 24-well plates, were treated with fresh media and shifted to 33° C. for 12 to 24 h prior to assay.
Competition Binding. Binding reactions were performed with HKRK-B28 cells or in COS-7 cells in 24-well plates. The cells were rinsed with 0.5 mL of binding buffer, and then treated successively with 100 μL binding buffer, 100 μL of binding buffer containing various amounts of unlabeled competitor ligand, and 100 μL of binding buffer containing ca. 100,000 cpm of ¹²⁵I-[M]PTH(1-21) or ¹²⁵I-[Aib^{1,3},M]PTH(1-21)} (ca. 26 fmol; final volume=300 μL). Incubations were 4 to 6 h at 4° C., at which time near equilibrium conditions were attained. Cells were then placed on ice, the binding medium was removed, and the monolayer was rinsed three times with 0.5 mL of cold binding buffer. The cells were subsequently lysed with 0.5 mL […] NaOH and counted for radioactivity. For each tracer and in each experiment, the non-specific binding was determined as the radioactivity that bound in the presence of the same unlabeled peptide at a concentration of 1 μM, and was ˜1% of total radioactivity added for each tracer. The maximum specific binding (B₀) was the total radioactivity bound in the absence of competing ligand, corrected for nonspecific binding, and for each tracer, ranged from 8% to 20% of the total radioactivity added. Nonlinear regression was used to calculate binding IC₅₀ values (see below). Scatchard transformations of homologous competition binding data derived from studies with 26 fmol of ¹²⁵I-[Aib^{1,3},M]PTH(1-21) were employed for estimations of apparent equilibrium dissociation constant (kDapps) and total number of ligand binding sites (Bₘₐₓ), assuming a single class of binding sites and equal affinities of the iodinated and non iodinated ligand.

[2] = target: T1, truncated human P1R deleted for …; experiment: competition binding, COS-7 cells expressing P1R-delNt
Protocol: These cells, as well as COS-7 cells and SaOS-2-B10 cells, were cultured at […] in T-75 flasks ([…]) in Dulbecco's modified Eagle's medium (DMEM) supplemented with fetal bovine serum (10%), penicillin G (20 units/ml), streptomycin sulfate (20 μg/ml) and amphotericin B (0.05 μg/ml) in a humidified atmosphere containing 5% CO₂. Stock solutions of EGTA/trypsin and antibiotics were from GIBCO; fetal bovine serum was from Hyclone Laboratories (Logan, Utah). […] All cells, in 24-well plates, were treated with fresh media and shifted to 33° C. for 12 to 24 h prior to assay.
Competition Binding. Binding reactions were performed with HKRK-B28 cells or in COS-7 cells in 24-well plates. […] The cells were subsequently lysed with 0.5 mL […] and counted for radioactivity. For each tracer and in each experiment, the non-specific binding was determined as the radioactivity that bound in the presence of the same unlabeled peptide at a concentration of 1 μM, and was ˜1% of total radioactivity added for each tracer. The maximum specific binding (B₀) was the total radioactivity bound in the absence of competing ligand, corrected for nonspecific binding, and for each tracer, ranged from 8% to 20% of the total radioactivity added. […]

[3] = target: T1, truncated human P1R deleted for …; experiment: Scatchard transformation of homologous competition binding, COS-7 cells
Protocol: The cells were subsequently lysed with 0.5 mL […] NaOH and counted for radioactivity. For each tracer and in each experiment, the non-specific binding was determined as the radioactivity that bound in the presence of the same unlabeled peptide at a concentration of 1 μM, and was ˜1% of total radioactivity added for each tracer. The maximum specific binding (B₀) was the total radioactivity bound in the absence of competing ligand, corrected for nonspecific binding, and for each tracer, ranged from 8% to 20% of the total radioactivity added. Nonlinear regression was used to calculate binding IC₅₀ values (see below). Scatchard transformations of homologous competition binding data derived from studies with 26 fmol of ¹²⁵I-[Aib^{1,3},M]PTH(1-21) were employed for estimations of apparent equilibrium dissociation constant (kDapps) and total number of ligand binding sites (Bₘₐₓ), assuming a single class of binding sites and equal affinities of the iodinated and non iodinated ligand.
To potentially improve affinity of this peptide, the paired Aib-1,3 modifications were introduced to produce [Aib^{1,3},M]PTH(1-21). […] The total specific binding observed in COS-7 cells tranfected with vector DNA alone was<2% of total radioactivity added. This radioligand, therefore, enabled competition binding experiments to be performed with both the wild-type and truncated PTH-1 receptors.

| Binder | IC50 [1] [nM] | fold stronger binding affinity than [M]PTH(1-14) [2] [fold] | fold weaker affinity at P1R-delNt than at P1R-WT [3] [fold] | fold difference in affinity against [Aib^1,3,M]PTH(1-14) [2] [fold] |
| --- | --- | --- | --- | --- |
| B1 | 1600 | ~10 |  |  |
| B2 | 27 |  | < 2 | 50 |
